Results published in patent CN117396506A (NOVARTIS AG, dated 2024).

Assays:
重组人IL-1β = target: T1, 重组人IL-1β (human, UniProt P01584 117-269); assay: solution equilibrium titration (SET), single-target binding assay, MSD ECL read-out; mean KD
T1 construct: In the LPS/IL-12 assays the IL-1β is the native cytokine made by the blood cells; also called huIL-1β; IL-1b

重组人IL-18 = target: T2, 重组人IL-18 (human, UniProt Q14116 37-193); assay: SET, single-target binding assay
T2 construct: In the LPS/IL-12 assays the IL-18 is the native cytokine made by the blood cells; also called huIL-18; human IL-18

B1: mAb2 (antibody, human IgG1, kappa, V domains shown)
VH: QVQLVESGGGVVQPGRSLRLSCAASGFTFSVYGMNWVRQAPGKGLEWVAIIWYDGDNQYYADSVKGRFTISRDNSKNTLYLQMNGLRAEDTAVYYCARDLRTGPFDYWGQGTLVTVSS
VL: EIVLTQSPDFQSVTPKEKVTITCRASQSIGSSLHWYQQKPDQSPKLLIKYASQSFSGVPSRFSGSGSGTDFTLTINSLEAEDAAAYYCHQSSSLPFTFGPGTKVDIKR
notes: Human anti-IL-1β antibody, bivalent mAb; also called IL-1β抗体mAb2
For B1, the Kd (重组人IL-1β) was 0.6 pM.

B2: mAb1 (antibody, human IgG1, lambda, L234A L235A, V domains shown)
VH: EVQLVQSGAEVKKPGSSVKVSCKASGGTFKSYAISWVRQAPGQGLEWMGNIIPMTGQTYYAQKFQGRVTITADESTSTAYMELSSLRSEDTAVYYCARAAYHPLVFDNWGQGTLVTVSS
VL: DIVLTQPPSVSGAPGQRVTISCSGSSSNIGNHYVNWYQQLPGTAPKLLIYRNNHRPSGVPDRFSGSKSGTSASLAITGLQSEDEADYYCQSWDYSGFSTVFGGGTKLTVLG
notes: Human anti-IL-18 antibody, bivalent mAb; also called IL-18抗体mAb1
B2: binds (重组人IL-18).
